Assay results as given in US8357523B2, “Beta-glucosidase variant enzymes and related polynucleotides” (Codexis, Inc., priority 2009, dated 2013).

test: High throughput cellobiose assay: fold improvement in cellobiase activity of CelA variants over a control enzyme (Tables 2A-2D, 3, 5, 6, 7); format: biochemical; conditions: 3.3 g/l cellobiose, 55° C. and pH 5.3 (incubation overnight)

Row | Molecule | Fold improvement over Control Variant No. 94 from Table 2B
1 | 287 (protein) STAIAQEGAAPAAILHPEKWPRPATQRLIDPAVEKRVDALLKQLSVEEKVGQVIQGDIGTITPEDLRKYPLGSILAGGDSGPNGDDRAPPKEWLDLADAFYRVSLEKRPGHTPIPVLFGIDAVHGHGNIGSATIFPHNIALGMTRDPELLRRIGEVTAEEMAATGIDWTFAPALSVVRDDRWGRTYEGFSEDPEIVASYSAAIVEGVQGKYGSKDFMAPGRIVASAKHFLADGGTDQGRDQGDARISEDELIRIHNAGYPPAIDAGVLTVMASFSSWQGIKHHGHKQLLTDVLKGQMGFNGFIVGDWNAHGQVPGCTKFNCPTSLIAGLDMYMAADSWKQLYENTLAQVKDGTIPMARLDDAVRRILRVKVLAGLFEKPAPKDRPGLPGLETLGSPEHRAVGREAVRKSLVLLKNDKGTLPLSPKARVLVAGDGADNIGKQSGGWTISWQGTGNRNDEFPGATSILGGIRDAVADAGGSVEFDVAGQYKTKPDVAIVVFGEEPYAEFQGDVETLEYQPDQKQDLALLKKLKDQGIPVVAVFLSGRPMWVNPELNASDAFVAAWLPGTEGGGVADVLFTDKAGKVQHDFAGKLSYSWPRTAAQTTVNRGDADYNPLFAYGYGLTYKDKSKVGTLPEESGVPAEARQNAGIYFRAGALRLPGRFL | ++++ (++++ = 1.1 to 1.5 fold improvement over Control No. 3, Variant No. 94)
2 | 285 (protein) STAIAQEGAAPAAILHPEKWPRPATQRLIDPAVEKRVDALLKQLSVEEKVGQVIQGDIGTITPEDLRKYPLGSILAGGDSGPNGDDRAPPKEWLDLADAFYRVSLEKRPGHTPIPVLFGIDAVHGHGNIGSATIFPHNIALGMTRDPELLRRIGEVTAEEMAATGIDWTFAPALSVVRDDRWGRTYEGFSEDPEIVASYSAAIVEGVQGKYGSKDFMAPGRIVASAKHFLADGGTDQGRDQGDARISEDELIRIHNAGYPPAIDAGVLTVMASFSSWQGIKHHGHKQLLTDVLKGQMGFNGFIVGDWNAHDQVPGCTKFNCPTSLIAGLDMYMAADSWKQLYENTLAQVKDGTIPMARLDDAVRRILRVKVLAGLFEKPAPKDRPELPGLETLGSPEHRAVGREAVRKSLVLLKNDKGTLPLSPKARVLVAGDGADNIGKQSGGWTISWQGTGNRNDEFPGATSILGGIRDAVADAGGSVEFDVAGQYKTKPDVAIVVFGEEPYAEFQGDVETLEYQPDQKQDLALLKKLKDQGIPVVAVFLSGRPMWVNPELNASDAFVAAWLPGTEGGGVADVLFTDKAGKVQHDFAGKLSYSWPRTAAQTTVNRGDADYNPLFAYGYGLTYKDKSKVGTLPEESGVP | ++++ (++++ = 1.1 to 1.5 fold improvement over Control No. 3, Variant No. 94)
3 | 215 (protein) STAIAQEGAPPAAILHPEKWPRPATQRLIDPAVEKRVDALLKQLSVEEKVGQVIQGDIGTITPEDLRKYPLGSILAGGDSGPNGDDRAPPKEWLDLADAFYRVSLEKRPGHTPIPVLFGIDAVHGHGNIGSATIFPHNIALGMTRDPELLRRIGEVTAEEMAATGIDWTFAPALSVVRDDRWGRTYEGFSEDPEIVASYSAAIVEGVQGKYGSKDFMAPGRIVASAKHFLADGGTDQGRDQGDARISEDELIRIHNAGYPPAIDAGVLTVMASFSSWQGIKHHGHKQLLTDVLKGQMGFNGFIVGDWNAHDQVPGCTKFNCPTSLIAGLDMYMAADSWKQLYENTLAQVKDGTIPMARLDDAVRRILRVKVLAGLFEKPAPKDRPGLPGLETLGSPEHRAVGREAVRKSLVLLKNDKGTLPLSPKARVLVAGDGADNIGKQSGGWTISWQGTGNRNDEFPGATSILGGIRDAVADAGGSVEFDVAGQYKTKPDVAIVVFGEEPYAEFQGDVETLEYQPDQKQDLALLKKLKDQGIPVVAVFLSGRPMWVNPELNASDAFVAAWLPGTEGGGVADVLFTDKAGKVQHDFAGKLSYSWPRTAAQTTVNRGDADYNPLFAYGYGLTYKDKSKVGTLPEESGVP | ++++ (++++ = 1.1 to 1.5 fold improvement over Control No. 3, Variant No. 94)
4 | 216 (protein) STAIAQEGAAPAATLHPEKWPRPATQRLIDPAVEKRVDALLKQLSVEEKVGQVIQGDIGTITPEDLRKYPLGSILAGGDSGPNGDDRAPPKEWLDLADAFYRVSLEKRPGHTPIPVLFGIDAVHGHGNIGSATIFPHNIALGMTRDPELLRRIGEVTAEEMAATGIDWTFAPALSVVRDDRWGRTYEGFSEDPEIVASYSAAIVEGVQGKYGSKDFMAPGRIVASAKHFLADGGTDQGRDQGDARISEDELIRIHNAGYPPAIDAGVLTVMASFSSWQGIKHHGHKQLLTDVLKGQMGFNGFIVGDWNAHDQVPGCTKFNCPTSLIAGLDMYMAADSWKQLYENTLAQVKDGTIPMARLDDAVRRILRVKVLAGLFEKPAPKDRPGLPGLETLGSPEHRAVGREAVRKSLVLLKNDKGTLPLSPKARVLVAGDGADNIGKQSGGWTISWQGTGNRNDEFPGATSILGGIRDAVADAGGSVEFDVAGQYKTKPDVAIVVFGEEPYAEFQGDVETLEYQPDQKQDLALLKKLKDQGIPVVAVFLSGRPMWVNPELNASDAFVAAWLPGTEGGGVADVLFTDKAGKVQHDFAGKLSYSWPRTAAQTTVNRGDADYNPLFAYGYGLTYKDKSKVGTLPEESGVP | ++++ (++++ = 1.1 to 1.5 fold improvement over Control No. 3, Variant No. 94)
5 | 217 (protein) STAIAQEGASPAAILHPEKWPRPATQRLIDPAVEKRVDALLKQLSVEEKVGQVIQGDIGTITPEDLRKYPLGSILAGGDSGPNGDDRAPPKEWLDLADAFYRVSLEKRPGHTPIPVLFGIDAVHGHGNIGSATIFPHNIALGMTRDPELLRRIGEVTAEEMAATGIDWTFAPALSVVRDDRWGRTYEGFSEDPEIVASYSAAIVEGVQGKYGSKDFMAPGRIVASAKHFLADGGTDQGRDQGDARISEDELIRIHNAGYPPAIDAGVLTVMASFSSWQGIKHHGHKQLLTDVLKGQMGFNGFIVGDWNAHDQVPGCTKFNCPTSLIAGLDMYMAADSWKQLYENTLAQVKDGTIPMARLDDAVRRILRVKVLAGLFEKPAPKDRPGLPGLETLGSPEHRAVGREAVRKSLVLLKNDKGTLPLSPKARVLVAGDGADNIGKQSGGWTISWQGTGNRNDEFPGATSILGGIRDAVADAGGSVEFDVAGQYKTKPDVAIVVFGEEPYAEFQGDVETLEYQPDQKQDLALLKKLKDQGIPVVAVFLSGRPMWVNPELNASDAFVAAWLPGTEGGGVADVLFTDKAGKVQHDFAGKLSYSWPRTAAQTTVNRGDADYNPLFAYGYGLTYKDKSKVGTLPEESGVP | ++++ (++++ = 1.1 to 1.5 fold improvement over Control No. 3, Variant No. 94)
6 | 214 (protein) STLIAQEGAAPAAILHPEKWPRPATQRLIDPAVEKRVDALLKQLSVEEKVGQVIQGDIGTITPEDLRKYPLGSILAGGDSGPNGDDRAPPKEWLDLADAFYRVSLEKRPGHTPIPVLFGIDAVHGHGNIGSATIFPHNIALGMTRDPELLRRIGEVTAEEMAATGIDWTFAPALSVVRDDRWGRTYEGFSEDPEIVASYSAAIVEGVQGKYGSKDFMAPGRIVASAKHFLADGGTDQGRDQGDARISEDELIRIHNAGYPPAIDAGVLTVMASFSSWQGIKHHGHKQLLTDVLKGQMGFNGFIVGDWNAHDQVPGCTKFNCPTSLIAGLDMYMAADSWKQLYENTLAQVKDGTIPMARLDDAVRRILRVKVLAGLFEKPAPKDRPGLPGLETLGSPEHRAVGREAVRKSLVLLKNDKGTLPLSPKARVLVAGDGADNIGKQSGGWTISWQGTGNRNDEFPGATSILGGIRDAVADAGGSVEFDVAGQYKTKPDVAIVVFGEEPYAEFQGDVETLEYQPDQKQDLALLKKLKDQGIPVVAVFLSGRPMWVNPELNASDAFVAAWLPGTEGGGVADVLFTDKAGKVQHDFAGKLSYSWPRTAAQTTVNRGDADYNPLFAYGYGLTYKDKSKVGTLPEESGVP | ++++ (++++ = 1.1 to 1.5 fold improvement over Control No. 3, Variant No. 94)
